The target in experiment [1] is HLA-Cw*0102 (Cw1) (human). Put plainly: Luminex, iBeads (#6), 1:4.
Experiment [2] deals with HLA-Cw*0302 (Cw10) (human). The experiment can be described thus: Luminex, iBeads (#6), 1:4.
In experiment [3] the target is HLA-Cw*0602 (Cw6) (human). Put plainly: Luminex, iBeads (#6), 1:4.
Experiment [4] deals with HLA-Cw*0702 (Cw7) (human). The experiment can be described thus: Luminex, iBeads (#6), 1:4.
In experiment [5] the target is HLA-Cw*1601 (Cw16) (human). The experiment can be described thus: Luminex, iBeads (#6), 1:4.
For experiment [6], the target named is HLA-Cw*1701 (Cw17) (human). The experiment can be described thus: Luminex, iBeads (#6), 1:4.
Another experiment has as its target HLA-B*0702 (B7) (human). Put plainly: Luminex iBeads (#6), IVIg diluted 1:4.
A further experiment has as its target HLA-B*0801 (B8) (human). Put plainly: Luminex iBeads (#6), IVIg diluted 1:4.
The target of the next experiment is HLA-B*1301 (B13) (human). The experiment can be described thus: Luminex iBeads (#6), IVIg diluted 1:4.
The target in experiment [7] is HLA-B*1401 (B64) (human). The experiment can be described thus: Luminex iBeads (#6), IVIg diluted 1:4.
A further experiment has as its target HLA-B*1402 (B65) (human). Put plainly: Luminex iBeads (#6), IVIg diluted 1:4.
The next experiment has as its target HLA-B*1501 (B62) (human). Put plainly: Luminex iBeads (#6), IVIg diluted 1:4.
A further experiment deals with HLA-B*1502 (B75) (human). Put plainly: Luminex iBeads (#6), IVIg diluted 1:4.
In another experiment the target is HLA-B*1503 (B72) (human). The experiment can be described thus: Luminex iBeads (#6), IVIg diluted 1:4.
In the next experiment the target is HLA-B*1510 (B71) (human). The experiment can be described thus: Luminex iBeads (#6), IVIg diluted 1:4.
The next experiment deals with HLA-B*1511 (B75) (human). The experiment can be described thus: Luminex iBeads (#6), IVIg diluted 1:4.
The target of another experiment is HLA-B*1513 (B77) (human). The experiment can be described thus: Luminex iBeads (#6), IVIg diluted 1:4.
The target in the next experiment is HLA-B*1516 (B63) (human). The experiment can be described thus: Luminex iBeads (#6), IVIg diluted 1:4.
Another experiment concerns the target HLA-B*1801 (B18) (human). The experiment can be described thus: Luminex iBeads (#6), IVIg diluted 1:4.
Experiment [8] addresses Serum albumin on negative control beads (HSA/BSA) (human or bovine). The experiment can be described thus: Luminex iBeads (#6), IVIg diluted 1:4.
Experiment [9] deals with HLA-A*3301 (A33) single antigen on beads (human). Put plainly: Luminex, iBead vs regular bead, IVIg 1:4.
Experiment [10] concerns the target HLA-A*3401 (A34) single antigen on beads (human). The experiment can be described thus: Luminex, iBead vs regular bead, IVIg 1:4.
The target in experiment [11] is HLA-A*6602 (A66) single antigen on beads (human). Put plainly: Luminex, iBead vs regular bead, IVIg 1:4.
The target in experiment [12] is HLA-A*6802 (A68) single antigen on Luminex beads (human). Put plainly: Luminex single antigen bead assay, iBeads (#6), IVIg 1:4.
For experiment [13], the target named is HLA-A*6901 (A69) single antigen on Luminex beads (human). The experiment is described as above.
Experiment [14] deals with HLA-A*7401 (A74) single antigen on Luminex beads (human). The description is as above.
Experiment [15] deals with HLA-A*8001 (A80) single antigen on Luminex beads (human). Described as above.
Experiment [16] has as its target HLA-B*2705 (B27) single antigen on Luminex beads (human). The experiment can be described thus: Luminex single antigen, iBeads (#6), IVIg 1:8.
Experiment [17] addresses HLA-B*2708 (B27) single antigen on Luminex beads (human). The experiment can be described thus: Luminex single antigen, iBeads (#6), IVIg 1:8.
In experiment [18] the target is HLA-B*3501 (B35) single antigen on Luminex beads (human). Put plainly: Luminex single antigen, iBeads (#6), IVIg 1:8.
Experiment [19] has as its target HLA-B*3701 (B37) single antigen on Luminex beads (human). Put plainly: Luminex single antigen, iBeads (#6), IVIg 1:8.
Experiment [20] concerns the target HLA-B*3801 (B38) single antigen on Luminex beads (human). The experiment can be described thus: Luminex single antigen, iBeads (#6), IVIg 1:8.
The target in experiment [21] is HLA-B*3901 (B39) single antigen on Luminex beads (human). The experiment can be described thus: Luminex single antigen, iBeads (#6), IVIg 1:8.
Experiment [22] has as its target HLA-B*4001 (B60) single antigen on Luminex beads (human). Put plainly: Luminex single antigen, iBeads (#6), IVIg 1:8.
In experiment [23] the target is HLA-B*4002 (B61) single antigen on Luminex beads (human). Put plainly: Luminex single antigen, iBeads (#6), IVIg 1:8.
For experiment [24], the target named is HLA-B*4006 (B61) single antigen on Luminex beads (human). Put plainly: Luminex single antigen, iBeads (#6), IVIg 1:8.
Experiment [25] concerns the target HLA-B*4101 (B41) single antigen on Luminex beads (human). The experiment can be described thus: Luminex single antigen, iBeads (#6), IVIg 1:8.
The target in experiment [26] is HLA-B*4201 (B42) single antigen on Luminex beads (human). The experiment can be described thus: Luminex single antigen, iBeads (#6), IVIg 1:8.
For experiment [27], the target named is HLA-B*4402 (B44) single antigen on Luminex beads (human). Put plainly: Luminex single antigen, iBeads (#6), IVIg 1:8.
Experiment [28] concerns the target HLA-B*4403 (B44) single antigen on Luminex beads (human). The experiment can be described thus: Luminex single antigen, iBeads (#6), IVIg 1:8.
In experiment [29] the target is HLA-B*4501 (B45) single antigen on Luminex beads (human). The experiment can be described thus: Luminex single antigen, iBeads (#6), IVIg 1:8.
Experiment [30] addresses HLA-B*4601 (B46) single antigen on Luminex beads (human). The experiment can be described thus: Luminex single antigen, iBeads (#6), IVIg 1:8.
The target of experiment [31] is HLA-B*4701 (B47) single antigen on Luminex beads (human). The experiment can be described thus: Luminex single antigen, iBeads (#6), IVIg 1:8.
Experiment [32] addresses HLA-B*1401 (B64) (human). The experiment can be described thus: Luminex iBeads (#6), IVIg diluted 1:8.

In the case of “IVIg Sandoglobulin (Novartis, Basel, Switzerland) (antibody)”, the MFI in experiment [1] stood at 511 MFI; in experiment [2] it was 522 MFI; in experiment [3], 627 MFI; in [4] it was 746 MFI; in experiment [5], 613 MFI; in experiment [6], 1050 MFI. Besides, the MFI in the experiment with HLA-B*0702 (B7) (human) came out at 436 MFI; in the experiment with HLA-B*0801 (B8) (human), 274 MFI; with HLA-B*1301 (B13) (human) it was 504 MFI; in the experiment with HLA-B*1401 (B64) (human) [7], 206 MFI; with HLA-B*1402 (B65) (human) it was 152 MFI; with HLA-B*1501 (B62) (human), 148 MFI. For the same substance, the MFI in the experiment with HLA-B*1502 (B75) (human) came to 245 MFI; with HLA-B*1503 (B72) (human) it was 0 MFI; with HLA-B*1510 (B71) (human), 271 MFI; in the experiment with HLA-B*1511 (B75) (human) it was 552 MFI; with HLA-B*1513 (B77) (human), 445 MFI; in the experiment with HLA-B*1516 (B63) (human), 756 MFI. For the same substance, the MFI with HLA-B*1801 (B18) (human) amounted to 114 MFI; in experiment [8] it was 667 MFI; in experiment [12], 596 MFI; in experiment [13] it was 788 MFI; in experiment [14], 316 MFI; in experiment [15], 564 MFI. Besides, the Difference % (iBead MFI vs regular bead MFI) in experiment [9] amounted to 270%; in experiment [10], 80%; in [11], 111%.
“Octagam (IVIg, Octapharma, Lachen, Switzerland) (antibody)”: the MFI in [16], in experiment [17], in experiment [18], in [19], in experiment [20] and in experiment [21] was 0 MFI in each case. The MFI in experiment [22] was 4 MFI; in experiment [23], 0 MFI; in [24], 167 MFI; in experiment [25] it was 0 MFI; in [26] it was 0 MFI; in experiment [27], 702 MFI. The MFI turned out to be 698 MFI in experiment [28], 308 MFI in experiment [29], 526 MFI in experiment [30] and 955 MFI in [31].
In the experiment with HLA-B*1401 (B64) (human) [32], “IVIg GamaSTAN S/D (Talecris Biotherapeutics, USA) (antibody)” had an MFI of 269 MFI.

The record behind these values is patent US10800847.
